Results: patent US20240044920A1 (Alexion, published 2024)

T1: human ceruloplasmin (human, UniProt P00450 20-1065)
T1 construct: also called CP; purified CP
T1 sequence: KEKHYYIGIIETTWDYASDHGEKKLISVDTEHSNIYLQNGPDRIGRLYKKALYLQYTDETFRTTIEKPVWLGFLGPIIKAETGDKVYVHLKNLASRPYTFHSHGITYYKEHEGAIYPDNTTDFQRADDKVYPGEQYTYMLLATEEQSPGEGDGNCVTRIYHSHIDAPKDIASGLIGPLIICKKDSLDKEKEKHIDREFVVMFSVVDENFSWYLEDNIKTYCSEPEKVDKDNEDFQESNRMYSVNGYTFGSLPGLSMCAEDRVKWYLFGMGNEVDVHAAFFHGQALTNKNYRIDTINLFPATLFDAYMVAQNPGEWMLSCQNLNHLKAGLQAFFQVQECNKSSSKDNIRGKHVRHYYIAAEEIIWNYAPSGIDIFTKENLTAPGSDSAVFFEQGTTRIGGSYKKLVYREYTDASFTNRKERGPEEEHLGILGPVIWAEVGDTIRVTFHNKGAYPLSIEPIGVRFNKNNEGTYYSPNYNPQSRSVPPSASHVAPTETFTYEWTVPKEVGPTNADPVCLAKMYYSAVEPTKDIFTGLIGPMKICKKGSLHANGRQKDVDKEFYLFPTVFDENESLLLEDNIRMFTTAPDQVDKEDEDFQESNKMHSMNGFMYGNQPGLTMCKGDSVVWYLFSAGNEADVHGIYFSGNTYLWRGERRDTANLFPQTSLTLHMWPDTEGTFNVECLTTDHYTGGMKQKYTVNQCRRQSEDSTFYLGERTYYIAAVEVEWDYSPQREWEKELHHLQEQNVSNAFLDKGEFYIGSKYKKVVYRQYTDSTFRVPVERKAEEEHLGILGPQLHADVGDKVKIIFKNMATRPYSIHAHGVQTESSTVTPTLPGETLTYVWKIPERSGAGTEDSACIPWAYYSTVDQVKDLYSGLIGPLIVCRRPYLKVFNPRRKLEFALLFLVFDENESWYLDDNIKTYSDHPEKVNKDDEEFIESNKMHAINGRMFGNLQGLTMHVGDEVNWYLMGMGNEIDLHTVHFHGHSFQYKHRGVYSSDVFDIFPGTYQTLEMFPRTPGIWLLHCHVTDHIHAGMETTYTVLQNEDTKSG

B1: anti-CP mAb C (antibody, V domains shown)
VH: QSVEESGGRLVTPGTPLTLTCTASGFSLSRYYMSWVRQAPGKGLEWIGMIYPSSGSTWYASWVKGRFTISATATSVDLKITSPTTEDTATYFCVRDRYPGYNGDSFNLWGQGTLVTVSS
VL: AQVLTQTASPVSAAVGSTVTINCQASQSVYNNNYLAWFQQKPGQPPKRLIYQASKLAIGVPSRFSGSGSGTQFTLTISDVQCDDAATYYCLGSYGCNSVDCNVFGGGTEVVVKG
notes: Recombinant full-length rabbit IgG from HEK-293; also called mAb2
B2: anti-CP mAb A (antibody, V domains shown)
VH: QSLEESGGDLVKPGASLTLTCKASGFDLSRFYYMCWVRQAPGKGLEWIACIYAGRTGNTYYASWAKGRFTISKTSSTTVTLQMTSLTAADTATYFCARASGDFLAYTYAMDLWGPGTLVTVSS
VL: AAVLTQTPASVSAAVGGTVTISCQASQSVDNNNYLAWYQQKPGQPPKLLIYEASKLASGVPSRFSGSGSGTQFTLTISDVQCDDATTYYCAGGYSSSADANAFGGGTEVVVKG
notes: Recombinant full-length rabbit IgG from HEK-293; tested as conditioned medium, Protein A-purified and biotinylated
B3: anti-CP mAb B (antibody, V domains shown)
VH: QQQLEESGGGLVKPGGTLTLTCKASGIDFSSYYYMCWVRQAPGKGLEWIACIYVIDDTIYCANWAKGRFTISKTSSTTVTLQMTSLTAADTATYFCARDGSSGIRDYFDLWGPGTLVTVSS
VL: AYDMTQTPASVEVAVGGTVTIKCQASESVSTWLAWYQQKPGQPPKLLIYKASDLASGVPSRFKGSGSGTEFTLTISGVECADAATYYCQQGYTYNNVENVFGGGTEVVVKG
notes: as for B2
B4: anti-CP mAb H (antibody, V domains shown)
VH: QSVEESGGRLVTPGTPLTLTCTVSGFSLSTYAMGWVRQAPGKGLEYIGIIYGGSGTFYASWAKGRFTISKTSTTVDLKITSPTTEDTATYFCARDGDDSYFDYFNLWGQGTLVTVSS
VL: AAVLTQTPASVSAAVGGTVSISCQSNENIGSNLAWYQQKPGQPPKLLIYGASTLTSGVPSRFKGSGSGTAFTLTISGVQCDDAATYYCLGGYLSTSDTTFGGGTAVVVKG
notes: as for B2
B5: anti-CP mAb G (antibody, V domains shown)
VH: QSLEESGGRLVTPGTLLTLTCTVSGFSLSSNAMSWVRQAPGEGLEWIGTISSRGSTYYANWAKGRFTISKTSTTVDLKITSPTTEDTATYFCARSSLAGYEPYYFKLWGQGTLVTVSS
VL: DVVMTQTASPVSAAVGGTVTIKCQASESISSYLAWYQQKPGQPPKLLIYGASDLASGVPSRFKGSGSGTEFTLTISDLECADAATYYCQSYYGLSRNGYGNVFGGGTEVVVKG
notes: Recombinant full-length rabbit IgG from HEK-293; also called mAb3
B6: anti-CP mAb D (antibody, V domains shown)
VH: QEQLVESGGGLVQPEGSLTLTCKASGFDFSSYWMCWVRQAPGKRPEWIACIYGGDGTSYFAGWAKGRFTISKTSSTTVTLQMTSLTAADTATYFCARADYYVYVDGGYGHAYDLWGPGTLVTVSS
VL: DIVMTQTPASVEAAVGGSVTIKCQASDDIYSYLAWYQQKPGQPPKLLIFDASSLPSGVPSRFKGSGSGTQFTLTISGVQCADAATYYCQNYYGSSSSVHAFGGGTEVVVKG
notes: as for B2

The binders below were run against T1, human ceruloplasmin (assay: competition ELISA on coated CP, biotinylated probe; competitor: CP-pAb).
Protocol: (§1) To assess whether any of the 8 anti-CP antibodies competed with each other for binding to CP, the following ELISA study was performed.
(§2) Briefly, CP was coated onto plates at 0.4 ug/mL overnight. Plates were then blocked with 1% BSA for 4 hours, incubated with 10 ug/mL unlabeled blocking antibody for 1 hour, and then, without washing, 50 ng/mL of biotinylated probe antibody for 1 hour. Plates were washed and subsequently incubated with SA-HRP for 30 minutes, followed by another wash. Plates were then incubated with TMB substrate for either 30 minutes or 15 minutes, as noted below, and the reaction was stopped by adding 0.18 M sulfuric acid and read at A450. The experiment was performed on two plates with plate 1 having a TMB incubation time of 30 minutes and plate 2 having a TMB incubation time of 15 minutes. Weaker binders to coated CP were tested on plate 1 and stronger binders on plate 2, with some duplication across plates. Probe Ab/blocking Ab interactions are shown in Table 3, and a summary of the binning results for all 8 anti-CP mAbs and for the 5 mAbs showing the most robust signal on coated CP (as shown in FIG. 6) is provided in Tables 4 and 5.
In the case of B1, the “probe binding, % of diluent control” value is reported as 3%.
B2 was tested, and the “probe binding, % of diluent control” value was 17%.
In the case of B3, the “probe binding, % of diluent control” value is reported as 2%.
In the case of B4, the “probe binding, % of diluent control” value is reported as 2%.
In the case of B5, the “probe binding, % of diluent control” value is reported as 6%.
With B6 the “probe binding, % of diluent control” value was 10%.

These binders were tested against T1, human ceruloplasmin (assay: competition ELISA on coated CP, biotinylated probe; competitor: mAb A).
Protocol: as §1, §2
In the case of B1, the “probe binding, % of diluent control” value is reported as 100%.
With B3 the “probe binding, % of diluent control” value was 94%.
For B4, the “probe binding, % of diluent control” value was 93%.
For B5, the “probe binding, % of diluent control” value was 91%.
In the case of B6, the “probe binding, % of diluent control” value is reported as 107%.

These binders were tested against T1, human ceruloplasmin (assay: capture ELISA: mAb (CM, 50 ng/mL) on anti-rabbit IgG-Fc; endogenous CP in Li-heparin human plasma 1:10,000).
Protocol: (§3) Ceruloplasmin binding by the 28 recombinant anti-CP mAbs was tested as follows. Clear 96-well plates (Nunc, Maxisorp) were coated and incubated overnight at 4 degrees with 10 ug/mL goat anti-rabbit IgG-Fc (Bethyl Laboratories) in BupH carbonate-bicarbonate buffer (ThermoFisher). The coating solution was discarded, and the plates were blocked with 1% BSA in PBS at room temperature for 2 hours and then the blocking solution was discarded. The 28 anti-CP mAb transient conditioned media were diluted to 50 ng/mL in PBS-T containing 1% BSA and incubated on the blocked plates for 1 hour at room temperature. Negative control wells were incubated with PBS-T containing 1% BSA alone or with transient conditioned medium containing non-CP-specific rabbit mAb at 50 ng/mL.
For B1, the A450 was 1.27 A450.
With B2 the A450 was 1.4 A450.
Work on B3 yielded an A450 of 1.32 A450.
For B4, the A450 was 1.03 A450.
B5 was tested, and the A450 was 1.18 A450.
B6 gave an A450 of 1.25 A450.

The binders below were run against T1, human ceruloplasmin (assay: competition ELISA on coated CP, biotinylated probe; competitor: mAb G).
Protocol: as §1, §2
B1 was tested, and the “probe binding, % of diluent control” value was 97%.
B2 was tested, and the “probe binding, % of diluent control” value was 35%.
B3 was tested, and the “probe binding, % of diluent control” value was 98%.
For B4, the “probe binding, % of diluent control” value was 95%.
In the case of B6, the “probe binding, % of diluent control” value is reported as 100%.

These binders were tested against T1, human ceruloplasmin (assay: competition ELISA on coated CP, biotinylated probe; competitor: mAb B).
Protocol: as §1, §2
In the case of B1, the “probe binding, % of diluent control” value is reported as 95%.
In the case of B2, the “probe binding, % of diluent control” value is reported as 183%.
For B4, the “probe binding, % of diluent control” value was 110%.
In the case of B5, the “probe binding, % of diluent control” value is reported as 93%.
B6 was tested, and the “probe binding, % of diluent control” value was 98%.

These binders were tested against T1, human ceruloplasmin (assay: competition ELISA on coated CP, biotinylated probe; competitor: mAb C).
Protocol: as §1, §2
B2 was tested, and the “probe binding, % of diluent control” value was 138%.
For B3, the “probe binding, % of diluent control” value was 78%.
B4 was tested, and the “probe binding, % of diluent control” value was 67%.
For B5, the “probe binding, % of diluent control” value was 108%.
In the case of B6, the “probe binding, % of diluent control” value is reported as 72%.

What follows are binders tested against T1, human ceruloplasmin (assay: competition ELISA on coated CP, biotinylated probe; competitor: mAb D).
Protocol: as §1, §2
With B1 the “probe binding, % of diluent control” value was 93%.
B2 was tested, and the “probe binding, % of diluent control” value was 113%.
With B3 the “probe binding, % of diluent control” value was 34%.
B4 was tested, and the “probe binding, % of diluent control” value was 33%.
B5 was tested, and the “probe binding, % of diluent control” value was 103%.

The binders below were run against T1, human ceruloplasmin (assay: competition ELISA on coated CP, biotinylated probe; competitor: mAb F).
Protocol: as §1, §2
With B1 the “probe binding, % of diluent control” value was 97%.
In the case of B2, the “probe binding, % of diluent control” value is reported as -2%.
In the case of B3, the “probe binding, % of diluent control” value is reported as 95%.
For B4, the “probe binding, % of diluent control” value was 94%.
B5 was tested, and the “probe binding, % of diluent control” value was 84%.
In the case of B6, the “probe binding, % of diluent control” value is reported as 100%.

These binders were tested against T1, human ceruloplasmin (assay: competition ELISA on coated CP, biotinylated probe; competitor: mAb H).
Protocol: as §1, §2
For B1, the “probe binding, % of diluent control” value was 85%.
In the case of B2, the “probe binding, % of diluent control” value is reported as 115%.
B3 was tested, and the “probe binding, % of diluent control” value was 204%.
For B5, the “probe binding, % of diluent control” value was 106%.
B6 was tested, and the “probe binding, % of diluent control” value was 9%.

What follows are binders tested against T1, human ceruloplasmin (assay: capture ELISA: mAb (CM, 50 ng/mL) on anti-rabbit IgG-Fc; 20 ng/mL purified human CP).
Protocol: as §3
B1 gave an A450 of 1.09 A450.
For B2, the A450 was 1.09 A450.
B3 was tested, and the A450 was 1.02 A450.
Work on B4 yielded an A450 of 0.924 A450.
B5 was tested, and the A450 was 0.987 A450.
In the case of B6, the A450 is reported as 1.03 A450.

These binders were tested against T1, human ceruloplasmin (assay: competition ELISA on coated CP, biotinylated probe; competitor: mAb E).
Protocol: as §1, §2
With B1 the “probe binding, % of diluent control” value was 99%.
With B2 the “probe binding, % of diluent control” value was 127%.
B3 was tested, and the “probe binding, % of diluent control” value was 87%.
With B4 the “probe binding, % of diluent control” value was 79%.
For B5, the “probe binding, % of diluent control” value was 102%.
In the case of B6, the “probe binding, % of diluent control” value is reported as 98%.
